What was measured:
[1] = biological target: T1, purified human monomeric 4-1BB (human, UniProt Q07011 24-186); experiment: SPR, mean n=3;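 also: antibodies captured on anti-human Fc chip, 4-1BB injected as five-point two-fold series from 40 nM by single-cycle kinetics at 25 °C, sensorgrams fitted to 1:1 Langmuir model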
T1 construct: the assay used the 4-1BB part released by Factor Xa with the Fc removed; also called h4-1BB; human 4-1BB
Protocol: The anti-human Fc surface was prepared on a CMS Series S sensorchip by standard amine coupling methods as described by the manufacturer (GE Healthcare). Briefly, immediately after EDC/NHS activation, a 25 μg/mL solution of anti-human Fc in 10 mM NaOAc pH 4.5 was injected at a flow rate of 10 μL/min for 420 s until approximately 2000 resonance units (RUs) were immobilized on all four flow cells. The remaining active groups were quenched by a 420 s injection of 1M ethanolamine at 10 μL/min.
Antibodies for analysis were captured onto the anti-Fc surface by injecting 5 μg/mL solutions at a flow rate of 10 μL/min for 60 s. Using single-cycle kinetics, five concentrations of a two-fold dilution series of 4-1BB starting at 40 nM (for both supernatant and purified antibody runs) with a blank buffer control were sequentially injected at 40 μL/min for 180 s with a 600 s dissociation phase, resulting in a set of sensorgrams with a buffer blank reference. Experiments were performed at a constant temperature of 25° C. The anti-human Fc surfaces were regenerated to prepare for the next injection cycle by one pulse of 10 mM Glycine/HCl pH 1.5 for 120 s at 40 μL/min. Blank-subtracted sensorgrams were analyzed using Biacore™ T200 Evaluation Software v3.0. The blank-subtracted sensorgrams were then fit to the 1:1 Langmuir binding model.
Protein material post protein-A or SEC was assessed for binding to human 4-1BB.

[2] = biological target: T2, human 4-1BB, full-length, expressed on cells (human, UniProt Q07011 24-255); experiment: flow cytometry, Jurkat-4-1BB
T2 construct: also called CD137; TNFRSF9
T2 sequence (Q07011 24-255): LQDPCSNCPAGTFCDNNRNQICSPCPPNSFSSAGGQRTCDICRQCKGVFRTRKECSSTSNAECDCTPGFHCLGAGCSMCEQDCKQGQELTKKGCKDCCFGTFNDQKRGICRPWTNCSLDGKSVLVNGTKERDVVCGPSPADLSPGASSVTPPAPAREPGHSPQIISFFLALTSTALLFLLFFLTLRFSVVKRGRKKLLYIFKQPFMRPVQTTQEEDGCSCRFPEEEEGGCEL

T1 sequence (Q07011 other isoform, or with tags, fused parts or gaps limits assumed): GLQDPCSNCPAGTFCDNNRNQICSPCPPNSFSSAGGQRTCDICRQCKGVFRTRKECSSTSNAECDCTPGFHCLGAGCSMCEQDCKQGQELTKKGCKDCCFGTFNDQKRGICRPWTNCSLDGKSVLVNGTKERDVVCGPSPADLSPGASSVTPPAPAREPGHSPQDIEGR

Row | Kd [1] [nM] | EC50 [2] [nM] | Binder
1 | 69.2 | 0.36 | v28688 (antibody, human IgG1, kappa, L234A L235A, V domains shown, also called humanized 1G1 H2L2) VH: EVQLVESGGGLVQPGGSLRLSCAASGFTFSEFGMHWVRQAPGKGLEWVAYISSGGSTIYYADSVKGRFTISRDNAKNSLYLQMNSLRAEDTAVYYCARDWVDYWGQGTLLTVSS VL: EIVLTQSPATLSLSPGERATLSCKASENVGSYVSWYQQKPGQAPRLLIYGASNRYTGVPARFSGSGSGTDFTLTISSLEPEDFAVYYCGQSYSYPLTFGGGTKVEIKR
2 | 40.3 | 1 | v28687 (antibody, human IgG1, kappa, L234A L235A, V domains shown, also called humanized 1G1 H2L1) VH: EVQLVESGGGLVQPGGSLRLSCAASGFTFSEFGMHWVRQAPGKGLEWVAYISSGGSTIYYADSVKGRFTISRDNAKNSLYLQMNSLRAEDTAVYYCARDWVDYWGQGTLLTVSS VL: EIVLTQSPATLSLSPGERATLSCKASENVGSYVSWYQQKPGQAPRLLIYGASNRYTGIPARFSGSGSGTDFTLTISSLEPEDFAVYYCGQSYSYPLTFGGGTKVEIKR
3 | 54.2 | 1.44 | v28691 (antibody, human IgG1, kappa, L234A L235A, V domains shown, also called humanized 1G1 H3L1) VH: EVQLVESGGGLVQPGGSLRLSCAASGFTFSEFGMHWVRQAPGKGLEWVAYISSGGSTIYYADSVKGRFTISRDNAKNSLYLQMNSLRAEDTAMYYCARDWVDYWGQGTLLTVSS VL: EIVLTQSPATLSLSPGERATLSCKASENVGSYVSWYQQKPGQAPRLLIYGASNRYTGIPARFSGSGSGTDFTLTISSLEPEDFAVYYCGQSYSYPLTFGGGTKVEIKR
4 | 58.3 | 0.486 | v28689 (antibody, human IgG1, kappa, L234A L235A, V domains shown, also called humanized 1G1 H2L3) VH: EVQLVESGGGLVQPGGSLRLSCAASGFTFSEFGMHWVRQAPGKGLEWVAYISSGGSTIYYADSVKGRFTISRDNAKNSLYLQMNSLRAEDTAVYYCARDWVDYWGQGTLLTVSS VL: EIVMTQSPATLSLSPGERVTLSCKASENVGSYVSWYQQKPGQAPRLLIYGASNRYTGVPARFSGSGSGTDFTLTISSVEPEDFAVYYCGQSYSYPLTFGGGTKLELKR
5 | 34.7 | 0.455 | v28694 (antibody, human IgG1, kappa, L234A L235A, V domains shown, also called humanized 1G1 H3L4) VH: EVQLVESGGGLVQPGGSLRLSCAASGFTFSEFGMHWVRQAPGKGLEWVAYISSGGSTIYYADSVKGRFTISRDNAKNSLYLQMNSLRAEDTAMYYCARDWVDYWGQGTLLTVSS VL: EIVMTQSPATLSLSPGERVTLSCKASENVGSYVSWYQQKPGQAPRLLIYGASNRYTGVPARFSGSGSGTDFTLTISSVEPEDLAVYYCGQSYSYPLTFGGGTKLELKR
6 | 42.3 | 0.223 | v28683 (antibody, human IgG1, kappa, L234A L235A, V domains shown, also called humanized 1G1 H1L1) VH: EVQLVESGGGLVQPGGSLRLSCAASGFTFSEFGMHWVRQAPGKGLEWVSYISSGGSTIYYADSVKGRFTISRDNAKNSLYLQMNSLRAEDTAVYYCARDWVDYWGQGTLVTVSS VL: EIVLTQSPATLSLSPGERATLSCKASENVGSYVSWYQQKPGQAPRLLIYGASNRYTGIPARFSGSGSGTDFTLTISSLEPEDFAVYYCGQSYSYPLTFGGGTKVEIKR
7 | 31.2 | 0.0551 | v28685 (antibody, human IgG1, kappa, L234A L235A, V domains shown, also called humanized 1G1 H1L3) VH: EVQLVESGGGLVQPGGSLRLSCAASGFTFSEFGMHWVRQAPGKGLEWVSYISSGGSTIYYADSVKGRFTISRDNAKNSLYLQMNSLRAEDTAVYYCARDWVDYWGQGTLVTVSS VL: EIVMTQSPATLSLSPGERVTLSCKASENVGSYVSWYQQKPGQAPRLLIYGASNRYTGVPARFSGSGSGTDFTLTISSVEPEDFAVYYCGQSYSYPLTFGGGTKLELKR
8 | 38.5 | 0.247 | v28684 (antibody, human IgG1, kappa, L234A L235A, V domains shown, also called humanized 1G1 H1L2) VH: EVQLVESGGGLVQPGGSLRLSCAASGFTFSEFGMHWVRQAPGKGLEWVSYISSGGSTIYYADSVKGRFTISRDNAKNSLYLQMNSLRAEDTAVYYCARDWVDYWGQGTLVTVSS VL: EIVLTQSPATLSLSPGERATLSCKASENVGSYVSWYQQKPGQAPRLLIYGASNRYTGVPARFSGSGSGTDFTLTISSLEPEDFAVYYCGQSYSYPLTFGGGTKVEIKR
9 | 34.4 | 0.376 | v28690 (antibody, human IgG1, kappa, L234A L235A, V domains shown, also called humanized 1G1 H2L4) VH: EVQLVESGGGLVQPGGSLRLSCAASGFTFSEFGMHWVRQAPGKGLEWVAYISSGGSTIYYADSVKGRFTISRDNAKNSLYLQMNSLRAEDTAVYYCARDWVDYWGQGTLLTVSS VL: EIVMTQSPATLSLSPGERVTLSCKASENVGSYVSWYQQKPGQAPRLLIYGASNRYTGVPARFSGSGSGTDFTLTISSVEPEDLAVYYCGQSYSYPLTFGGGTKLELKR
10 | 46.4 | 0.771 | v28692 (antibody, human IgG1, kappa, L234A L235A, V domains shown, also called humanized 1G1 H3L2) VH: EVQLVESGGGLVQPGGSLRLSCAASGFTFSEFGMHWVRQAPGKGLEWVAYISSGGSTIYYADSVKGRFTISRDNAKNSLYLQMNSLRAEDTAMYYCARDWVDYWGQGTLLTVSS VL: EIVLTQSPATLSLSPGERATLSCKASENVGSYVSWYQQKPGQAPRLLIYGASNRYTGVPARFSGSGSGTDFTLTISSLEPEDFAVYYCGQSYSYPLTFGGGTKVEIKR
11 | 36.2 | 0.353 | v28693 (antibody, human IgG1, kappa, L234A L235A, V domains shown, also called humanized 1G1 H3L3) VH: EVQLVESGGGLVQPGGSLRLSCAASGFTFSEFGMHWVRQAPGKGLEWVAYISSGGSTIYYADSVKGRFTISRDNAKNSLYLQMNSLRAEDTAMYYCARDWVDYWGQGTLLTVSS VL: EIVMTQSPATLSLSPGERVTLSCKASENVGSYVSWYQQKPGQAPRLLIYGASNRYTGVPARFSGSGSGTDFTLTISSVEPEDFAVYYCGQSYSYPLTFGGGTKLELKR
12 | 31.1 | – | v28686 (antibody, human IgG1, kappa, L234A L235A, V domains shown, also called humanized 1G1 H1L4) VH: EVQLVESGGGLVQPGGSLRLSCAASGFTFSEFGMHWVRQAPGKGLEWVSYISSGGSTIYYADSVKGRFTISRDNAKNSLYLQMNSLRAEDTAVYYCARDWVDYWGQGTLVTVSS VL: EIVMTQSPATLSLSPGERVTLSCKASENVGSYVSWYQQKPGQAPRLLIYGASNRYTGVPARFSGSGSGTDFTLTISSVEPEDLAVYYCGQSYSYPLTFGGGTKLELKR
13 | 195 | 3.32 | v28705 (antibody, human IgG1, kappa, L234A L235A, V domains shown, also called humanized 5G8 H3L3) VH: QVQLQESGPGLVKPSETLSITCTVSGFSLISYGVHWVRQPPGKGLEWLGVIWSGGSTDYNPSLKSRVTISKDTSKNQVSFKLSSLTAADTAIYYCARNPLTATVMDYWGQGTLVTVSS VL: DIQMTQSPSSLSASVGDRVTVTCRASQNVGTNVAWYQQKPGKAPKALIYSASYRDSGVPSRFSGSGSGTDFTLTISSVQPEDFATYYCQQYNSYPLTFGGGTKLEIKR
14 | 222 | 56.4 | v28700 (antibody, human IgG1, kappa, L234A L235A, V domains shown, also called humanized 5G8 H2L2) VH: QVQLQESGPGLVKPSETLSLTCTVSGFSLISYGVHWVRQPPGKGLEWLGVIWSGGSTDYNPSLKSRVTISKDTSKNQFSLKLSSVTAADTAVYYCARNPLTATVMDYWGQGTLVTVSS VL: DIQMTQSPSSLSASVGDRVTITCRASQNVGTNVAWYQQKPGKAPKALIYSASYRDSGVPSRFSGSGSGTDFTLTISSLQPEDFATYYCQQYNSYPLTFGGGTKVEIKR
15 | 735 | – | v28697 (antibody, human IgG1, kappa, L234A L235A, V domains shown, also called humanized 5G8 H1L3) VH: QVQLQESGPGLVKPSETLSLTCTVSGFSLISYGVHWIRQPPGKGLEWIGVIWSGGSTDYNPSLKSRVTISVDTSKNQFSLKLSSVTAADTAVYYCARNPLTATVMDYWGQGTLVTVSS VL: DIQMTQSPSSLSASVGDRVTVTCRASQNVGTNVAWYQQKPGKAPKALIYSASYRDSGVPSRFSGSGSGTDFTLTISSVQPEDFATYYCQQYNSYPLTFGGGTKLEIKR
16 | 1110 | 38.3 | v28698 (antibody, human IgG1, kappa, L234A L235A, V domains shown, also called humanized 5G8 H1L4) VH: QVQLQESGPGLVKPSETLSLTCTVSGFSLISYGVHWIRQPPGKGLEWIGVIWSGGSTDYNPSLKSRVTISVDTSKNQFSLKLSSVTAADTAVYYCARNPLTATVMDYWGQGTLVTVSS VL: DIQMTQSPSSLSASVGDRVTVTCRASQNVGTNVAWYQQKPGKAPKALIYSASYRDSGVPSRFSGSGSGTDFTLTISSVQPEDLATYYCQQYNSYPLTFGGGTKLEIKR
17 | 574 | – | v28696 (antibody, human IgG1, kappa, L234A L235A, V domains shown, also called humanized 5G8 H1L2) VH: QVQLQESGPGLVKPSETLSLTCTVSGFSLISYGVHWIRQPPGKGLEWIGVIWSGGSTDYNPSLKSRVTISVDTSKNQFSLKLSSVTAADTAVYYCARNPLTATVMDYWGQGTLVTVSS VL: DIQMTQSPSSLSASVGDRVTITCRASQNVGTNVAWYQQKPGKAPKALIYSASYRDSGVPSRFSGSGSGTDFTLTISSLQPEDFATYYCQQYNSYPLTFGGGTKVEIKR
18 | 763 | – | v28726 (antibody, human IgG1, kappa, L234A L235A, V domains shown, also called humanized 1C8 H7L3) VH: EVQLVESGGGLIQPGGSLRLSCAVSGFSLTTYAISWVRQAPGKGLEWLGIIWPGGGTNYADSVKGRFTISKDNSKNTLYLQMNSLRAEDTAVYYCARGAGTWYFDVWGQGTLVTVSS VL: DIQMTQSPSSLSASVGDRVTITCSASQGISNYLNWYQQKPGKTVKLLIYYTSSLHSGVPSRFSGSGSGTDYTLTISSLQPEDIATYYCQQYSKFPWTFGQGTKLEIKR
19 | 1420 | 713 | v28728 (antibody, human IgG1, kappa, L234A L235A, V domains shown, also called humanized 1C8 H8L2) VH: EVQLVESGGGLIQPGGSLRISCAVSGFSLTTYAISWVRQAPGKGLEWLGIIWPGGGTNYADSLKGRLTISKDNSKNTVYLQMNSLRTEDTAVYYCARGAGTWYFDVWGQGTLVTVSS VL: DIQMTQSPSSLSASVGDRVTITCSASQGISNYLNWYQQKPGKAPKLLIYYTSSLHSGVPSRFSGSGSGTDYTLTISSLQPEDIATYYCQQYSKFPWTFGQGTKLEIKR
20 | 762 | 88.7 | v28730 (antibody, human IgG1, kappa, L234A L235A, V domains shown, also called humanized 1C8 H8L3) VH: EVQLVESGGGLIQPGGSLRISCAVSGFSLTTYAISWVRQAPGKGLEWLGIIWPGGGTNYADSLKGRLTISKDNSKNTVYLQMNSLRTEDTAVYYCARGAGTWYFDVWGQGTLVTVSS VL: DIQMTQSPSSLSASVGDRVTITCSASQGISNYLNWYQQKPGKTVKLLIYYTSSLHSGVPSRFSGSGSGTDYTLTISSLQPEDIATYYCQQYSKFPWTFGQGTKLEIKR
21 | 813 | 24.2 | v28727 (antibody, human IgG1, kappa, L234A L235A, V domains shown, also called humanized 1C8 H8L1) VH: EVQLVESGGGLIQPGGSLRISCAVSGFSLTTYAISWVRQAPGKGLEWLGIIWPGGGTNYADSLKGRLTISKDNSKNTVYLQMNSLRTEDTAVYYCARGAGTWYFDVWGQGTLVTVSS VL: DIQMTQSPSSLSASVGDRVTITCSASQGISNYLNWYQQKPGKAPKLLIYYTSSLHSGVPSRFSGSGSGTDFTFTISSLQPEDIATYYCQQYSKFPWTFGQGTKVEIKR

From patent US20230052369A1 (Zymeworks, published 2023)
